1 molecule from patent publication US20230194545A1 (SEATTLE CHILDREN S HOSPITAL D B A SEATTLE CHILDREN S …, published 2023) can be followed below.

The test addresses T1, WASp 289-304 signature peptide (human).
T1 construct: Endogenous tryptic peptide released from human dried blood spot digests
T1 peptide: LIYDFIEDQGGLEAVR
The test is described as follows: immuno-SRM: peptide enrichment from normal control DBS digests, quantified by LC-SRM-MS.

B1: Anti-WASp 289 monoclonal antibody (antibody, V domains shown)
VH: QSVEESGGRLVTPGTPLTLTCTVSGFSLSSSDMTWVRQAPGKGLEYIGYMSSNDRPYYASWANGRFTISKTSTTVTLKITSPTTEDTATYFCCRGVLGTRSIHIWGPGTLVTVSL
VL: IVMTQTPSPVSAAVGGTVTINCQASESVYSDNRLSWYQQKPGQPPKQLIYGASTLASEVSSRFKGSGSGTQFTLTINDVVCDDAATYYCAGYKSSNQDGIGFGGGTEVVVKG
modifications: In the assay the antibody was chemically cross-linked (DMP) to Protein G magnetic beads; the letters do not carry this.
notes: Rabbit monoclonal antibody raised against the KLH-conjugated peptide; The printed light chain holds an X near its C-terminus; In the assay the antibody was cross-linked to Protein G magnetic beads
On to B1, for which the binding result is “binds”.
